According to patent publication US20120264231A1, “ASSAY FOR ORAI CALCIUM CHANNEL REGULATORS” (IMMUNE DISEASE INSTITUTE, INC., priority 2009, published 2012):

Assays:
[1] = Cameleon intravesicular Ca^2+ assay, control vesicles; type: biochemical, S cerevisiae; settings: ionomycin 20 μM
Description: In complementary measurements, vesicular Ca^2+ was monitored directly by coexpressing ORAI1 with the Ca^2+ sensor D3 cpV or D4 cpV53 fused to the α-mating factor secretion signal to target the sensor to the vesicles. Vesicles that had incorporated ORAI1 were isolated from sec6-4 yeast incubated at the restrictive temperature and were diluted into assay buffer.
S cerevisiae strain NY17 featuring the temperature-sensitive sec6-4 mutation was used for protein expression and purification of secretory vesicles as described (Nakamoto, R. K., et al., J Biol Chem 266, 7940-7949 (1991); Coury, L. A., et al., Methods Enzymol 306, 169-186 (1999)). Cells were grown to midlog phase at 25° C. in uracil-deficient synthetic complete medium containing glucose, which was subsequently exchanged for galactose to induce transgene expression over a period of 8 hours. The temperature was then switched to 37° C. for 3 hours to force intracellular accumulation of secretory vesicles. […] Myc-tagged ORAI1 was detected in Western blots using the murine anti-Myc monoclonal antibody 9E10.
Changes in intravesicular [Ca^2+] were monitored with the modified Ca^2+ sensors cameleon D3 cpV and D4 cpV53. […] Emission spectra were recorded from 450-560 nm with excitation set at 410 nm, with a 5-8 nm slitwidth for both excitation and emission, and corrected by subtracting the spectrum obtained with buffer alone. […]

GST-ORAI1 (65-87) = target: T1, GST-ORAI1 (65-87) (Homo sapiens, UniProt Q96D31); assay: GST pull down assay with GST-ORAI1 (65-87); type: binding
T1 construct: A plasmid encoding ORAI1 (65-87) as a GST fusion protein; made in house; host or cells: E. coli BL21 (DE3), pGEX-2T
T1 sequence (Q96D31 65-87 limits assumed): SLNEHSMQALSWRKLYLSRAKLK
Excerpt: A conserved region of ORAI1 immediately preceding, and extending into, ORAI1 transmembrane segment 1 is implicated in channel opening (Feske et al., Nature 441: 179-185 (2006); Li et al., J. Biol. Chem. 282: 29448-29456 (2007); Park et al., Cell 136: 876-890 (2009); Derler et al., J. Biol. Chem. 284: 15903-15915 (2009)), and GFP-ORAI1 (48-91) expressed in mammalian cells co-immunoprecipitates with STIM1 (342-448) (Park et al., Cell 136: 876-890 (2009)). Here again, the protein-protein interaction is direct, because purified recombinant STIM1CT bound to purified GST-ORAI1 (65-87) (FIG. 2C).
The cDNAs encoding mouse STIM 1^CT fragments (residues 233-685, 233-666, 233-600, 233-531, 233-498, or 233-463) were amplified via PCR and cloned into the pProEX HTb vector (Invitrogen) between the BamHI and XhoI sites for expression as His-tagged proteins. For production of the C-terminal cytoplasmic tail of ORAI 1 as a GST fusion protein, coupled to GST through the flexible linker—GSGSRGSPEF—(SEQ ID NO: 1), cDNA encoding ORAI1 residues 259-301 was amplified using PCR and cloned into the pGEX-4T-1 vector (GE Healthcare) between the BamHI and NotI sites. A plasmid encoding ORAI1 (65-87) as a GST fusion protein with the linker—GSGGGS—(SEQ ID NO: 9) was produced by inserting the corresponding Cdna into the pGEX-2T vector (GE Healthcare). […]

Molecule | Ca^2+ release from control vesicles (cameleon) [1] | binding to purified GST-ORAI1 (65-87) (GST-ORAI1 (65-87)) | strength of interaction compared with STIM1^CT-ORAI1^CT interaction (GST-ORAI1 (65-87))
C[C@H](CCC(=O)O)C[C@H](C)C[C@H](C)C(=O)/C=C(\O)[C@H](C)C[C@H](C)C/C=C/[C@@H](C)[C@@H](O)[C@@H](C)[C@@H](O)C[C@@H]1CC[C@@](C)([C@H]2CC[C@@](C)([C@@H](C)O)O2)O1 [ionomycin, reference compound] | effective in releasing Ca^2+ | – | –
STIM1^CT: cytoplasmic region of STIM1, mouse residues 233-685, His-tagged recombinant protein expressed in E coli | – | bound | weaker
